Assay results reported in the DeepSol protein solubility set.

test: soluble on expression in E. coli; label from the status in PepcDB or PDB records

Q: Which “soluble on expression in E. coli” value does the source give for “MAHHHHHHMEWVELHDVDPETMSLELPPDMLFGPLEFPKQMRFLLAALRADNELADGYLARVIIDRMDLSLDPPILSEGDFLAAGGKELLDFSVEDFTGTKSRAQRKHIFFQPDQFLQFINIIAAYPTLTEYFVNEKDGVELVFQAYRHSKNPYACVMAMRSLTLFSFTQAVDGTVERRILQSNGVKTIVDAYKQSTGDPTETRFPTLLLSSIMRHYPKEGGKEFIDADGVEAVVNNLNIARYKGIPQHIRVLHDAQRLPKQSIGKKSVDARLEEADFLGVAMGLLDTFPEFYEATGDLLKLLTRVVPAHADPLELLEYRAMPILSKYYVRWREDQSFQTDGTRTLVAKLFELMLNDKTCQRCYDPSVASYELLECLRTAKLAVKDEQEKRVMRFPDPQRQPASAAA” here?
A: Its value is “soluble”.

Q: For “MSLFTNLVKMGKKLKNLTKKYQLNKEKIEKFITVRKRLTFLGERPSVVEKPVVVKFGGTSVRYAFEEALELVANLNENTRTIVVVSALAGVTDCLLRLANGDMSALLEIEEIHEELSQELDVQLDHLMYQLHKTLNSKSSFPSKEAFVDEIASFGERFSAELFSEGLKILGINAKAVDSKDILFAKGDYGNAEVDFKKSVYGAGILYRMLRRGIVPVVTGYYGNLNGFRATFGRGGSDYSATSIARLVNAKATLIMSDVEGIYTADPKLVPSAKLIHYISYREAKIAAKLGMKALHHRAIDPVEGRIPVILGKTRDLKFGTLISHKSQGIPVVVHKLIEDHAEVSVVSTRRSFSLPYEVYEEGDFYFKIKIPKEQFLEVLKDIHRRVVENESLRPSYDSELWAWVEGHHHHHH”, which “soluble on expression in E. coli” value is on record?
A: Its value is “not soluble”.

Q: With “MGSDKIHHHHHHMVKSNICGGSTMTQTLPKLVTFEQFIEWYPSNGARYELHKGVIVEMPPPSGEHENVVGFLAAQITLQFLQMGLPFCIPKTAFVKIQSNNSTYSPDILLLNHDNLVNEPLWSKQSTVIQAASIPLAVEVVSQCVARVPRVEATDEPVRVSTNWRDDYYDKFRDYEEMGIPEYWIVDYAAIGGKRFTGNPKQKTITICELVEGDYQMTVFRENNFVVSPLFPQLNLTAQQIFDSAL” as the sequence, how does the “soluble on expression in E. coli” value read?
A: The value was “not soluble”.

Q: With “MGIFSRFADIVNSNISALLDKAEDPEKMIRLIIQEMEDTLVEVRTNSAKAIADKKELARKVEMLEEQIGEWGQKASLALVKEREDLARAALIEKQKLEQVVKGLHTEQTLVEETINKLTGEIGKLENKIAETRAKQQALAIRNQTASNRRDVQKHLHTSRTNEAMAKFDQYSRKIDEMEAEADLYAQTGNAKSLEQEFAELQAQDEIEKELAKLKEQMSSQDKLEHHHHHH” as the sequence, how does the “soluble on expression in E. coli” value read?
A: Its value is “soluble”.

Q: Which “soluble on expression in E. coli” value does the source give for “MIKFSATLLATLIAASVNAATVDLRIMETTDLHSNMMDFDYYKDAATEKFGLVRTASLIEQARAEVKNSVLVDNGDVIQGSPLGDYMAAKGLKEGDVHPVYKAMNTLNYAVGNLGNHEFNYGLDFLHKALAGAKFPYVNANIIDAKTGKPMFTPYLIQDTRVVDSDGQIHTLRIGYIGFVPPQIMTWDKANLNGKVTVNDITETARKYIPEMRAKGADVVVVVAHSGLSADPYQAMAENSVYYLSQVPGVDAIMFGHAHAVFPGKDFANIKGADIAKGTLNGVPAVMPGMWGDHLGVVDLVLNNDSGKWQVTQSKAEARPIYDAVAKKSLAAEDGKLVSVLKADHDATREFVSK” here?
A: Its value is “not soluble”.

Q: For “MGSDKIHHHHHHMNSFLDSVCALLEQGEDVVIVTIAMQSGSTPRESGAKMAVRRDGSILGTVGGGLMEAGCMELGREMLTGRFASSAAESGPELAVIRHFDLSNEEAAKAAMVCGGRLTVVAEHIQAGRRGAEVLCAARDSLLQGKACGLETTMERLEHTAAATREACFAVTGRKTPDCGHAAPAAASATLDCDGKTCRFTEWLQPSPRMIIFGAGHVALPTAAMASMTGFAVTVLDDREEFASPQRFPQARTVVLPDFGQAFAQLTITPQCYVVIMTRGHLHDKTVLEQALKTPACYVGMIGSRRKRDALYDQLRSEGVDESSIARCHCPIGLEIGARTPEEIAVSIMAEIIACRAAGNGDGAS”, which “soluble on expression in E. coli” value is on record?
A: The value was “not soluble”.

Q: With “MTDSDNPRRVLLKLSGEAFGGGKVGIDTQVIRRIAEEIVPAVQQGVQVAIVVGGGNFFRGAELQQAGIDRSRGDYMGMLGTVMNCLALQDFLEQEGQATRVQTAITMGQVAEPYIPLKAIRHLEKGRVVIFGAGAGMPYFSTDTVSIQRSLEIHCDEVLMGKNGVDGVYTADPRKDENAKRFETLSYNRALVDNLAVMDASALSMARDNKKRIRVFGLEEPGNVTRALVGDEIGTLVSTAESRVAELEHHHHHH” as the sequence, how does the “soluble on expression in E. coli” value read?
A: The value was “soluble”.

Q: With “YLLGHSLGELTCLSVNSLFSLKDLFDIANFRNKLMVTSTEKYLVAHNINRSNKFEMWALSSPRATDLPQEVQKLLNSPNLLSSSQNTISVANANSVKQCVVTGLVDDLESLRTELNLRFPRLRITELTNPYNIPFHNSTVLRPVQEPLYDYIWDILKKNGTHTLMELNHPIIANLDGNISYYIHHALDRFVKCSSRTVQFTMCYDTINSGTPVEIDKSICFGPGNVIYNLIRRNCPQVDTIEYTS” as the sequence, how does the “soluble on expression in E. coli” value read?
A: The value was “soluble”.

Q: With LSDEDFRAVFGMTRSAFANLPLWRQQNLRRERGLF as the sequence, how does the “soluble on expression in E. coli” value read?
A: Its value is “soluble”.

Q: For “MSFRIGRRCFSKQSYDAIIIGGGHNGLTAAAYLTKAGKKVCVLERRHVVGGAAVTEEIVPGFRFSRASYLLSLLRPVVMQELNLKKFGLRYHIRNPNSFTPIRNTHESLLLGMDMAENQKEIAKFSQRDAGNYPKYEHFISEIVHSFEQLMDYEPLDLQKPIHKLLPHLYLLFKTVQPLGLRNAVDFYELMTAPISKIMNKWFESDVLKATLGTDGVIGLAASPMDPGTGYVLLHHVIGGLDEHKGAWGYVYGGMGAVSNAIAECAKSHGAEIYTEQDVQEVLLDGNVAKGVRLSNGKELHSKIVMSNATPHVTFNHLVKKESLPEEFHRNINQIDYTSPVTKINVAVKELPNFLAKPNQGSEPMPHHQTTIHMNCENMQVVHDAVMDYKNGRYSRRPVIEMTIPSSVDRTIVDSADGHVVLLFTQYTPFSPKDGEWTEEKKTEYAKHVFSEIDAYAPNFSSSVIGYDILTPPDIQNTFGITGGNIFHGSMSLDQLYVSRPISKWSNYSTPIESLYLCGSGAHPGGGVTGAPGRLSALHALKHF”, which “soluble on expression in E. coli” value is on record?
A: The value was “not soluble”.

Q: For “MRVYKPEDVPNVQLADSTRLVTDEAGLLSNAQEEVMNGRLRAIRSSHAVEFAVVTLPSIGDAPLEDFTLKLARQWGVGNEKNNNGLLLVLVLDQRRVRFETGYGLEGYLPDGLLSRIIHDRMIPHFRSGNYAEGLSEGVLAVQQVLDGSLEHHHHHH”, which “soluble on expression in E. coli” value is on record?
A: The value was “soluble”.

Q: For “MFMFEKPHGMRDTLPGLYETKKKVRRSLTDLIDKWGYQFMETPTLEFYDTVGVQSAIEEQQLFKLLDQDGKTLVLRPDMTGPIARVAASKLLKHGHPLRVGYAANVFRAQEREGGRPAEFEQVGVELIGDGTTSADAEVIALVVGALKNAGLASFKIAIGHAGIADALFVEVLGNVERADVLRRFLYEKNYVGYREHVKSLPLSSIDKSRLLELLELRGGIEVCGRAEEIVDSAQGKSVVDELKALWDILEDYGCTENVRLDLNMVSHMSYYTGILFEVYAENVGFVIGSGGRYNKLLGHFDSPAPATGFGLRIDRLIEALHMKDEPCEIDAVIFSKEQRAQAIAYANEERMKGNKVVLQDLSGIENIDQMTKSFANVTYFIGARKEEQNG”, which “soluble on expression in E. coli” value is on record?
A: The value was “not soluble”.

Q: With “MNKHERLDEIAKLVNKKGTIRTNEIVEGLNVSDMTVRRDLIELENKGILTKIHGGARSNSTFQYKEISHKEKHTRQIAEKRYIARKAASLIEDGDTLFFGPGTTVELLAEEVNHHTLTIITNCLPVYKILLEKQTAHFRVYLIGGEMRHITEAFVGEMANAMLEKLRFSKMFFSSNAVNKGAVMTSTLDEAYTQQLALSNSIEKYLLIDHTKVGKEDFTSFCQLNELTAVVMDYEDEEKVETIKTYIEVVDLEHHHHHH” as the sequence, how does the “soluble on expression in E. coli” value read?
A: Its value is “soluble”.

Q: With “MAHHHHHHMGKLCWLQISIGGKPAKEKILLELFDDITPKTCANFRALCTGNEGKVTDETQIPMTYKGSTFHRIIAGFMIQGGDFTKHNGTGGVSIYGERFDDENFDVPCDKAGLLAMANAGPNTNGSQFFITVNPAQHLTGRHVVFGKVVRGMNTVRALEHTETGANDKPVKPCVIVDCGVTDTLPEPEPQVGGDTFPDYPEDCTPSLTDAELLDVGEEIRQIGNKLFKASDFENAIQKYEKAARFVKTINKTTANDVAVNEKLIACYNNTAACAIKLGQWSEARNAASRVLELDNSNAKALFRRGFASLSAGDSESAVADFTKAQKLDPDNTEIVTVLQQAKEAEKVRTAKLAAGLKKMFS” as the sequence, how does the “soluble on expression in E. coli” value read?
A: The value was “not soluble”.

Q: Which “soluble on expression in E. coli” value does the source give for “MLAIFHEAFAHPPEELNSPASEKCSKQPKLPEETLNDFLLRYPLNTFSMSFGQAAVLAYVRPSASFSIHQRLFCGFDDIYCLFFGSLNNLCQLNKQYGLTKTTNEAMFVIEAYRTLRDRGPYPADQVVKDLDGSFSFVVYDSKAGSVFTALVLIHKISPRLLELNFNGSDGGVKLYWGIAADGSVVISDDLDVIKEGCAKSFAPFPTGCMFHSEGGLMSFEHPMNKIKAMPRVDSEGVLCGANFKVDVYNRVNSIPRRGSEANWSL” here?
A: Its value is “soluble”.

Q: With “MSHQSPPIAEVDATDDMHEALFAKRGCCFLMPCLASSQPSTRGGSVWWQRITTVDKLEPDERWWIRGWRRMREWSELVAGPRWKTYIRRFGRSNCCGGGGGRVGNSSGGCGGGAMPNRSSDQGKFRYDQLSYSLNFDDGNQTGHFDDEFPYRDYSMRFAAPSLPVSTKCSIDFDSDIDNK” as the sequence, how does the “soluble on expression in E. coli” value read?
A: The value was “soluble”.

Q: For “MSNEEARSAGDLRNTGLSLRHDRTWDYELDRIVDEVERKDAEKVGLQFPEGLKRRGPAVADDLRARLDDTRIMLSGQPCYGACDLDTYLMRRTDVFVHFGHSPMKESDSIIYVPLFSNVDVEPIMQEARDELHDGDVGLVTTAQHMNQFEEMRTWLEERGYTVHTRRGDDRLTNEGQVLGCNYASADIDADQVLYVGGGKFHPLGLAMEHPEKNVVIADPVNNAVSIADAEQFLKERYASVHKAMDAEQWGVIFCTKIGQGRFDQAEEIVENNDNAYLITMDEVTPDRLMNFDMDAFVNTGCPRITTDDGPQFHKPMLTPGEYEIAVGNKPLEDLSFDTFHGTWLEHHHHHH”, which “soluble on expression in E. coli” value is on record?
A: Its value is “not soluble”.

Q: Which “soluble on expression in E. coli” value does the source give for “MGINVQFRPMTIHDIDEVVQVERASFTSPWSRESFYNELMYNRYAKYIVMVYNGRIIGYGGMWLVIDEAHVTNVAVLPQFRGQKLGEALMRRLMDMARQHGAATMTLEVRVSNHVAQSLYRKLGFRNGGIRKRYYPDNFEDALVMWVKLR” here?
A: Its value is “not soluble”.

Q: Which “soluble on expression in E. coli” value does the source give for “VINQVESASKVIDWPLALKRSANKADLAKEMLLGLVESLPETQLSIREAIDVQDIAQIKRLVHKLNGACCYTGTPNLAKITIQLETQLKMGLSTEELEPEFLEFFEHIEQVLFAVPEALKEMSEN” here?
A: The value was “not soluble”.

Q: For “MKDTLGFEHADRSLYYRFRNSLSSNLHLTHFDIETKLEVAKKFNLILNDQFVKDLNSTMNLIFEPNGCLASYTWKTDFLDYTLNPMELIIPYQSVIPSKTVPYRKRRMNDLEDLRKIKECSKRAFISNSDQSEVPSTSMLNSMKEMITEAVETSNKKLIEELKTSNEALVAQVANFKSKHIEQSSGKPGMRAYLEGLKGFLHHLNMPELADIKVRLNTLEKDLGDTDQPIPVQSIHSVLDIGLKLIGG”, which “soluble on expression in E. coli” value is on record?
A: Its value is “not soluble”.

Q: For “MSWQTYVDEHLMCDIDGQGEELAASAIVGHDGSVWAQSSSFPQFKPQEITGIMKDFEEPGHLAPTGLHLGGIKYMVIQGEAGAVIRGKKGSGGITIKKTGQALVFGIYEEPVTPGQCNMVVERLGDYLIDQGL”, which “soluble on expression in E. coli” value is on record?
A: Its value is “soluble”.

Q: For “MHILVVSVNYRTAPVEFREKLTFQAAELERAMTTLQNQKSVLENVIVSTCNRTEIYAVVDQLHTGRYYIKKFLADWFQLEIEEVAPYLTIFEQDGAIDHLFRVTCGLDSMVVGETQILGQIKDSFLEAQQVKATGTIFNELFKQVITLAKRAHSETTIGESAMSVSYAAVELGKKIFGELTDCHVLILGAGKMGELALQNLYGSGARKVTVMNRTLSKAEIMAEKYMGHAKPLSELQCALLEADILISSTGASDYVITKEMMTKVEKMRSGRPLFMVDIAVPRDIDPAIDELEGSFLYDIDDLQGVVEANRAERLKEAEKIQFMIEEEIVLFKTWLSTLGVVPLISALRDKALAIQSETMESLERKIPNLSDRERKVISKHTKSIINQLLKDPILVAKEIAAEEGADEKLALFAKIFDLEMEDVESRAEEVEHKRVWTPSVPSL”, which “soluble on expression in E. coli” value is on record?
A: The value was “not soluble”.
